The data set is described as follows: protein stability index of a GFP-peptide fusion (yeast GPS) (PSI 1-4); higher = more stable; sorted into four equal gates, so the index is relative within each strain. The method in brief:
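The protein stability index combines read frequencies across sorting gates, each weighted by its gate number and then summed. To obtain those frequencies, a pooled yeast library of GFP fusions to tiled 17-residue yeast protein peptides, on a plasmid also expressing Cherry, was grown to mid-log phase in leucine-free medium. The cells were sorted into four equal gates by GFP/Cherry ratio before plasmid amplification by PCR and Illumina sequencing.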

± gives the uncertainty stated by the source.

Consider EFANFELKDICSFAVTK [YML103C/NUP188], for which the protein stability index is 2.07 ± 0.072 (doa10∆), 2.29 ± 0.065 (pdr5∆), 2.22 ± 0.12 (san1∆) and 2.05 ± 0.043 (ubr1∆).
The matching figures for FGVSFIYAGYDDRYGYQ [PRE9]: 2.33 ± 0.09, 2.61 ± 0.097, 2.04 ± 0.19 and 2.45 ± 0.11.
The matching figures for VKGDLLQEAIDFAQKEI [PRE10]: 2.9 ± 0.076, 2.84 ± 0.066, 3.2 ± 0.054 and 2.9 ± 0.048.
Taken in the same sequence, the figures for NEKLECISLGSTKLSRP [ITC1] were 2.25 ± 0.064, 2.64 ± 0.052, 2.44 ± 0.047 and 2.47 ± 0.057.
As for DTSDIIVDPTAEQLKIS [RRP46], the protein stability index is, setting by setting: (doa10∆) 1.79 ± 0.091; (pdr5∆) 2.19 ± 0.097; (san1∆) 2.73 ± 0.14; (ubr1∆) 2.12 ± 0.092.
The matching figures for LAVEDKPSPIDSGIGSN [CSL4]: 3.02 ± 0.069, 3.27 ± 0.062, 3.06 ± 0.052 and 3.08 ± 0.044.
The matching figures for QGDGLLTKLQKYGAAVR [RPN7]: 2.93 ± 0.17, 2.89 ± 0.14, 3.17 ± 0.12 and 3.28 ± 0.19.
The matching figures for VFSESCSNESFASIPVS [SNU114]: 2.98 ± 0.061, 3.29 ± 0.068, 2.88 ± 0.062 and 3.12 ± 0.044.
Regarding AVFYTPKELGGLGMISA [PRP8], the protein stability index by setting is: (doa10∆) 3.43 ± 0.13; (pdr5∆) 2.33 ± 0.13; (san1∆) 2.4 ± 0.1; (ubr1∆) 2.29 ± 0.24.
The matching figures for RPHQSRESLIMLLEEQL [MED7]: 2 ± 0.081, 2.37 ± 0.093, 1.45 ± 0.19 and 2.12 ± 0.054.
The matching figures for SFEETVEILFEAGASAE [RPO21]: 2.7 ± 0.11, 2.77 ± 0.09, 2.89 ± 0.063 and 2.51 ± 0.093.
Taken in the same sequence, the figures for YNGRGARERKTATYNDN [SNF2] were 3 ± 0.069, 2.54 ± 0.074, 2.69 ± 0.074 and 2.69 ± 0.071.
In the case of EVSALVRSLPKEEQPKQ [PRP8], the protein stability index reads like this: (doa10∆) 1.23 ± 0.075; (pdr5∆) 1.38 ± 0.082; (san1∆) 1.26 ± 0.12; (ubr1∆) 1.08 ± 0.051.
Taken in the same sequence, the figures for EEIFFKSVRILKNKAEY [RPC40] were 3.2 ± 0.074, 3.2 ± 0.085, 3.06 ± 0.062 and 3.16 ± 0.047.
In the case of PKVTPQMMQQAQQKLKQ [SRP54], the protein stability index runs as follows: (doa10∆) 1.42 ± 0.25; (pdr5∆) 1.18 ± 0.18; (ubr1∆) 1.48 ± 0.24.
For VFTMKELAQYMKTNVHT [RGR1], the protein stability index reads like this: (doa10∆) 2.66 ± 0.1; (pdr5∆) 2.84 ± 0.13; (san1∆) 2.6 ± 0.082; (ubr1∆) 2.69 ± 0.057.
Taken in the same sequence, the figures for TFIKDCLFTKCLEDPEK [POP4] were 1.57 ± 0.11, 1.78 ± 0.091, 1.57 ± 0.18 and 1.83 ± 0.061.
Sequence NKLLRRKLMEMENILQR [YIL149C/MLP2] came in with a protein stability index (doa10∆) of 3.41 ± 0.2 and a protein stability index (san1∆) of 3.33 ± 0.11.
Consider LALGSHNKLIQFGNACI [SSN2], for which the protein stability index runs as follows: (doa10∆) 2.13 ± 0.13; (pdr5∆) 1.6 ± 0.087; (san1∆) 2.2 ± 0.13; (ubr1∆) 1.28 ± 0.089.
Taken in the same sequence, the figures for FIEDLAPEQQVQQFAQL [UBP6] were 2.79 ± 0.059, 3.02 ± 0.046, 3.04 ± 0.049 and 2.98 ± 0.037.
The matching figures for ASELANPYSSYVSQIRK [YAR002W/NUP60]: 3.22 ± 0.17, 2.9 ± 0.13, 2.31 ± 0.17 and 1.92 ± 0.073.
Taken in the same sequence, the figures for EVNISSLDAREANFDLI [RPC40] were 3.4 ± 0.11, 3.37 ± 0.095, 3.17 ± 0.095 and 3.22 ± 0.068.
On to SDIPVSENVFEGLTYKY [SSN3], for which the protein stability index turned out to be 1.82 ± 0.078 (doa10∆), 1.89 ± 0.1 (pdr5∆) and 1.98 ± 0.042 (ubr1∆).
As for RSVDRAGRKFKSRRCDD [POP4], the protein stability index by setting is: (doa10∆) 3.1 ± 0.079; (pdr5∆) 3.16 ± 0.078; (san1∆) 3.33 ± 0.071; (ubr1∆) 3.18 ± 0.075.
As to SKKLNLKIHQSHLVVPY [YMR129W/POM152], the protein stability index came to 2.32 ± 0.15 (doa10∆), 1.95 ± 0.086 (pdr5∆) and 2.88 ± 0.14 (ubr1∆).
In the case of DKQDGTAKPAFSFGAKP [YJL041W/NSP1], the protein stability index is, setting by setting: (doa10∆) 3.24 ± 0.087; (pdr5∆) 3.29 ± 0.077; (san1∆) 3.22 ± 0.057; (ubr1∆) 3.35 ± 0.086.

Source of the values: the supplement of paper PMC9732359.
